The Immune Epitope Database (IEDB)

Key:
HLA-A*03:01 [1] = assay: IEDB peptide-MHC binding, purified MHC/competitive/fluorescence; ≥ and ≤ were set here for values at or beyond the usual limits of such assays
HLA-A*02:01 [2] = assay: as above; conditions: source organism: Zaire ebolavirus
HLA-A*11:01 [3] = assay: as above
HLA-C*12:03 = assay: IEDB peptide-MHC binding, purified MHC/direct/fluorescence; filed as Kd, often an IC50 or EC50 that approximates it; ≥ and ≤ were set here for values at or beyond the usual limits of such assays; conditions: source organism: Foot-and-mouth disease virus C1
HLA-B*08:01 [4] = assay: IEDB peptide-MHC binding, purified MHC/competitive/fluorescence; filed as Kd, often an IC50 or EC50 that approximates it; ≥ and ≤ were set here for values at or beyond the usual limits of such assays
HLA-B*35:01 = assay: as above; conditions: source organism: Encephalitozoon cuniculi GB-M1
HLA-B*51:01 = assay: as above; conditions: source organism: Encephalitozoon cuniculi GB-M1
HLA-B*15:01 [5] = assay: as above; conditions: source organism: Encephalitozoon cuniculi GB-M1
HLA-B*07:02 [6] = assay: as above
HLA-C*15:02 = assay: IEDB peptide-MHC binding, purified MHC/direct/fluorescence; filed as Kd, often an IC50 or EC50 that approximates it; ≥ and ≤ were set here for values at or beyond the usual limits of such assays; conditions: source organism: Yellow fever virus
HLA-B*15:17 = assay: as above; conditions: source organism: Yellow fever virus 17D
HLA-B*15:01 [7] = assay: IEDB peptide-MHC binding, purified MHC/competitive/fluorescence; ≥ and ≤ were set here for values at or beyond the usual limits of such assays; conditions: source organism: Zaire ebolavirus
HLA-A*24:02 [8] = assay: IEDB peptide-MHC binding, purified MHC/direct/fluorescence; filed as Kd, often an IC50 or EC50 that approximates it; ≥ and ≤ were set here for values at or beyond the usual limits of such assays
HLA-B*08:01 [9] = assay: as above
HLA-A*31:01 [10] = assay: as above
HLA-B*40:01 = assay: as above
HLA-A*69:01 [11] = assay: as above
HLA-B*46:01 = assay: as above
HLA-B*58:01 = assay: as above
HLA-A*26:01 = assay: as above
HLA-A*03:01 [12] = assay: as above
HLA-B*27:05 = assay: as above
HLA-B*15:01 [13] = assay: as above
HLA-A*02:01 [14] = assay: as above
HLA-A*11:01 [15] = assay: as above
HLA-B*07:02 [16] = assay: as above
HLA-A*01:01 = assay: as above
HLA-B*08:01 [17] = assay: IEDB peptide-MHC binding, purified MHC/competitive/fluorescence; ≥ and ≤ were set here for values at or beyond the usual limits of such assays; conditions: source organism: Zaire ebolavirus
HLA-B*07:02 [18] = assay: as above; conditions: source organism: Zaire ebolavirus
HLA-B*08:02 = assay: IEDB peptide-MHC binding, purified MHC/direct/fluorescence; filed as Kd, often an IC50 or EC50 that approximates it; ≥ and ≤ were set here for values at or beyond the usual limits of such assays; conditions: source organism: Influenza A virus(A/swine/Shandong/fNY/2003(H9N2))
HLA-B*44:02 = assay: as above
HLA-A*24:03 = assay: as above
HLA-B*18:01 = assay: as above; conditions: source organism: Influenza A virus (A/goose/Guangxi/1097/2004(H5N1))
HLA-A*31:01 [19] = assay: IEDB peptide-MHC binding, purified MHC/competitive/fluorescence; filed as Kd, often an IC50 or EC50 that approximates it; ≥ and ≤ were set here for values at or beyond the usual limits of such assays; conditions: source organism: Influenza A virus H3N2
HLA-A*02:03 = assay: as above; conditions: source organism: Homo sapiens
HLA-A*69:01 [20] = assay: as above; conditions: source organism: Homo sapiens
HLA-A*02:01 [21] = assay: as above; conditions: source organism: Homo sapiens
HLA-A*03:01 [22] = assay: as above; conditions: source organism: Vaccinia virus WR
HLA-A*24:02 [23] = assay: IEDB peptide-MHC binding, purified MHC/competitive/fluorescence; ≥ and ≤ were set here for values at or beyond the usual limits of such assays; conditions: source organism: Zaire ebolavirus
[24] = source organism: Zaire ebolavirus
[25] = source organism: Influenza A virus (A/SW/KS/13481-T/00(H1N2))
[26] = source organism: Influenza A virus (A/Puerto Rico/8/34/Mount Sinai(H1N1))
[27] = source organism: Influenza A virus (A/goose/Guangxi/1097/2004(H5N1))
[28] = source organism: Influenza A virus (A/swine/Hong Kong/5190/99(H3N2))
[29] = source organism: Vaccinia virus WR
[30] = source organism: Sudan ebolavirus
[31] = source organism: Influenza A virus (A/swine/Bakum/5/95(H1N1))
[32] = source organism: Influenza A virus (A/Hong Kong/507/97(H5N1))

Sequence: MMVIFRLMR
- IC50 (HLA-A*03:01 [1]; [24]): 0.183 µM
- IC50 (HLA-A*02:01 [2]): ≥ 5440 µM
- IC50 (HLA-A*11:01 [3]; [24]): 0.0455 µM

Sequence: MTAHITVPY
- Kd (HLA-C*12:03): 0.045 µM

Sequence: QLRENAEDM
- Kd (HLA-B*08:01 [4]; source organism: Influenza A virus (A/swine/Hong Kong/81/1978(H3N2))): 5.3 µM

Sequence: ILRQNMIAL
- Kd (HLA-B*35:01): 3.18 µM
- Kd (HLA-B*51:01): ≥ 20 µM
- Kd (HLA-B*15:01 [5]): 0.188 µM
- Kd (HLA-B*07:02 [6]; source organism: Encephalitozoon cuniculi GB-M1): 0.201 µM

Sequence: KTNDRKWCF
- Kd (HLA-C*15:02): 0.849 µM
- Kd (HLA-B*15:17): 0.0266 µM

Sequence: AITAASLPK
- IC50 (HLA-A*03:01 [1]; [24]): 6.97 µM
- IC50 (HLA-B*15:01 [7]): ≥ 183 µM
- IC50 (HLA-A*02:01 [2]): ≥ 281 µM
- IC50 (HLA-A*11:01 [3]; [24]): 0.368 µM

Sequence: HEKGINPNY
- Kd (HLA-A*24:02 [8]; [25]): ≥ 20 µM
- Kd (HLA-B*08:01 [9]; [25]): ≥ 20 µM
- Kd (HLA-A*31:01 [10]; [25]): ≥ 20 µM
- Kd (HLA-B*40:01; [25]): ≥ 20 µM
- Kd (HLA-A*69:01 [11]; [25]): ≥ 20 µM
- Kd (HLA-B*46:01; [25]): ≥ 20 µM
- Kd (HLA-B*58:01; [25]): ≥ 20 µM
- Kd (HLA-A*26:01; [25]): ≥ 20 µM
- Kd (HLA-A*03:01 [12]; [25]): ≥ 20 µM
- Kd (HLA-B*27:05; [25]): ≥ 20 µM
- Kd (HLA-B*15:01 [13]; [26]): 0.541 µM
- Kd (HLA-A*02:01 [14]; [25]): ≥ 20 µM
- Kd (HLA-A*11:01 [15]; [25]): ≥ 20 µM
- Kd (HLA-B*07:02 [16]; [25]): ≥ 20 µM
- Kd (HLA-A*01:01; [25]): ≥ 20 µM

Sequence: ILFQRTFSI
- IC50 (HLA-B*08:01 [17]): 1.26 µM
- IC50 (HLA-A*03:01 [1]; [24]): 2.46 µM
- IC50 (HLA-B*15:01 [7]): ≥ 375 µM
- IC50 (HLA-A*02:01 [2]): 0.309 µM
- IC50 (HLA-A*11:01 [3]; [24]): 42.8 µM
- IC50 (HLA-B*07:02 [18]): ≥ 72.2 µM

Sequence: KYTSGRQEK
- Kd (HLA-A*24:02 [8]; [27]): ≥ 20 µM
- Kd (HLA-B*08:01 [9]; [27]): ≥ 20 µM
- Kd (HLA-B*40:01; [27]): ≥ 20 µM
- Kd (HLA-B*08:02): ≥ 20 µM
- Kd (HLA-A*69:01 [11]; [27]): ≥ 20 µM
- Kd (HLA-B*44:02; [27]): ≥ 20 µM
- Kd (HLA-B*46:01; [27]): ≥ 20 µM
- Kd (HLA-A*24:03; [27]): ≥ 20 µM
- Kd (HLA-B*58:01; [27]): ≥ 20 µM
- Kd (HLA-A*26:01; source organism: Influenza A virus(A/swine/Shandong/fNY/2003(H9N2))): ≥ 20 µM
- Kd (HLA-A*03:01 [12]; [27]): ≥ 20 µM
- Kd (HLA-B*27:05; [27]): ≥ 20 µM
- Kd (HLA-B*15:01 [13]; [27]): ≥ 20 µM
- Kd (HLA-A*02:01 [14]; [27]): ≥ 20 µM
- Kd (HLA-A*11:01 [15]; [27]): ≥ 20 µM
- Kd (HLA-B*07:02 [16]; [27]): ≥ 20 µM
- Kd (HLA-B*18:01): ≥ 20 µM
- Kd (HLA-A*01:01; [27]): ≥ 20 µM
- Kd (HLA-A*31:01 [19]): 0.268 µM

Sequence: FLHSGTAKS
- Kd (HLA-A*02:03): 0.00125 µM
- Kd (HLA-A*69:01 [20]): ≥ 20 µM
- Kd (HLA-A*02:01 [21]): 0.0185 µM

Sequence: GYMFESKSM
- Kd (HLA-A*24:02 [8]; [28]): ≥ 20 µM
- Kd (HLA-B*08:01 [9]; [28]): ≥ 20 µM
- Kd (HLA-A*31:01 [10]; [28]): ≥ 20 µM
- Kd (HLA-B*40:01; [28]): ≥ 20 µM
- Kd (HLA-A*69:01 [11]; [28]): ≥ 20 µM
- Kd (HLA-B*44:02; [28]): ≥ 20 µM
- Kd (HLA-A*24:03; [28]): 0.0677 µM
- Kd (HLA-B*58:01; [28]): ≥ 20 µM
- Kd (HLA-A*26:01; source organism: Influenza A virus(A/swine/Henan/5/2004(H9N2))): ≥ 20 µM
- Kd (HLA-A*03:01 [12]; [28]): ≥ 20 µM
- Kd (HLA-B*27:05; [28]): ≥ 20 µM
- Kd (HLA-A*02:01 [14]; [28]): ≥ 20 µM
- Kd (HLA-A*11:01 [15]; [28]): ≥ 20 µM
- Kd (HLA-B*07:02 [16]; [28]): ≥ 20 µM
- Kd (HLA-A*01:01; [28]): ≥ 20 µM

Sequence: LSDLKKTIY
- Kd (HLA-A*01:01; source organism: Cowpox virus (Brighton Red)): 0.0035 µM
- Kd (HLA-B*08:01 [4]; [29]): ≥ 20 µM
- Kd (HLA-A*03:01 [22]): ≥ 20 µM
- Kd (HLA-B*07:02 [6]; [29]): ≥ 20 µM

Sequence: KYLEGHGFR
- IC50 (HLA-A*24:02 [23]): 7.69 µM
- IC50 (HLA-A*03:01 [1]; [24]): ≥ 195 µM

Sequence: HLASTDQLK
- IC50 (HLA-A*03:01 [1]; [30]): 27.1 µM
- IC50 (HLA-A*11:01 [3]; [30]): 13.8 µM

Sequence: RGINDRNFW
- Kd (HLA-A*24:02 [8]; [31]): ≥ 20 µM
- Kd (HLA-B*08:01 [9]; [31]): ≥ 20 µM
- Kd (HLA-A*31:01 [10]; [31]): ≥ 20 µM
- Kd (HLA-B*40:01; [31]): ≥ 20 µM
- Kd (HLA-A*69:01 [11]; [31]): ≥ 20 µM
- Kd (HLA-B*46:01; [31]): ≥ 20 µM
- Kd (HLA-B*58:01; source organism: Influenza A virus (A/swine/Bakum/1832/2000(H1N2))): 0.0415 µM
- Kd (HLA-A*03:01 [12]; [31]): ≥ 20 µM
- Kd (HLA-B*27:05; [31]): ≥ 20 µM
- Kd (HLA-B*15:01 [13]; [31]): ≥ 20 µM
- Kd (HLA-A*02:01 [14]; [31]): ≥ 20 µM
- Kd (HLA-A*11:01 [15]; [31]): ≥ 20 µM
- Kd (HLA-B*07:02 [16]; [31]): ≥ 20 µM
- Kd (HLA-A*01:01; [31]): ≥ 20 µM

Sequence: IMPRDSWLI
- Kd (HLA-A*24:02 [8]; source organism: Mycobacterium tuberculosis str. Haarlem): ≤ 0.001 µM

Sequence: KSCLPACVY
- Kd (HLA-A*24:02 [8]; [32]): ≥ 20 µM
- Kd (HLA-B*08:01 [9]; [32]): ≥ 20 µM
- Kd (HLA-A*31:01 [10]; [32]): ≥ 20 µM
- Kd (HLA-B*40:01; [32]): ≥ 20 µM
- Kd (HLA-A*69:01 [11]; [32]): ≥ 20 µM
- Kd (HLA-B*44:02; [32]): ≥ 20 µM
- Kd (HLA-B*46:01; [32]): ≥ 20 µM
- Kd (HLA-B*58:01; [32]): 0.211 µM
- Kd (HLA-A*26:01; source organism: Influenza A virus(A/swine/Henan/8/2004(H9N2))): ≥ 20 µM
- Kd (HLA-A*03:01 [12]; [32]): ≥ 20 µM
- Kd (HLA-B*27:05; [32]): ≥ 20 µM
- Kd (HLA-B*15:01 [13]; [26]): 0.482 µM
- Kd (HLA-A*02:01 [14]; [32]): ≥ 20 µM
- Kd (HLA-B*07:02 [16]; [32]): ≥ 20 µM
- Kd (HLA-A*01:01; [32]): ≥ 20 µM

Sequence: RLLNLSGVN
- IC50 (HLA-A*03:01 [1]; [24]): 43.2 µM
- IC50 (HLA-A*02:01 [2]): 21.9 µM
